The text below walks through data of paper PMC9449809 (Frontiers in Immunology, 2022).

For the experiment, the target named is SARS-CoV-2 spike protein receptor-binding domain, Wuhan-Hu-1 sequence (SARS-CoV-2, UniProt P0DTC2). Description: ELISA. The conditions noted are these: both partners purified.

B1: monoclonal antibody REGN10987 (imdevimab) (antibody, V domains shown)
VH: QVQLVESGGGVVQPGRSLRLSCAASGFTFSNYAMYWVRQAPGKGLEWVAVISYDGSNKYYADSVKGRFTISRDNSKNTLYLQMNSLRTEDTAVYYCASGSDYGDYLLVYWGQGTLVTVSS
VL: QSALTQPASVSGSPGQSITISCTGTSSDVGGYNYVSWYQQHPGKAPKLMIYDVSKRPSGVSNRFSGSKSGNTASLTISGLQSEDEADYYCNSLTSISTWVFGGGTKLTVL
With B1, the binding result is recorded as “binds”.

B2: monoclonal antibody REGN10933 (casirivimab) (antibody, V domains shown)
VH: QVQLVESGGGLVKPGGSLRLSCAASGFTFSDYYMSWIRQAPGKGLEWVSYITYSGSTIYYADSVKGRFTISRDNAKSSLYLQMNSLRAEDTAVYYCARDRGTTMVPFDYWGQGTLVTVSS
VL: DIQMTQSPSSLSASVGDRVTITCQASQDITNYLNWYQQKPGKAPKLLIYAASNLETGVPSRFSGSGSGTDFTFTISGLQPEDIATYYCQQYDNLPLTFGGGTKVEIK
Regarding B2, the binding result was “binds”.
